Measured values as given in the DeepSol protein solubility set.

Experiment: soluble on expression in E. coli; label from the status in PepcDB or PDB records

Row | Sequence | soluble on expression in E. coli
1 | MMSDQKDEEEYSHSSNRSEDEDEERTIDNEINRSPNKSYKLGNIIGNGSFGVVYEAICIDTSEQVAIKKVLQDPQYKNRELMIMKNLNHINIIYLKDYYYTESFKKNEKNIFLNVVMEYIPQTVHKYMKYYSRNNQALPMFLVKLYSYQLCRALSYIHSKFICHRDLKPQNLLIDPRTHTLKLCDFGSAKNLLAGQRSVSYICSRFYRAPELMLGSTNYTTHIDLWSLGCIIAEMILGYPIFSGQSSVDQLVRIIQVLGTPTEDQLKEMNPNYADIKFPDVKSKDLRKVFPKGTPDEAINLITQFLKYEPLKRLNPIEALADPFFDELRDPCIKLPKYIDKLPELFNFCKEEIQEMSMECRRKIIPKNVYEEFLMVDE | not soluble
2 | MMSLAWPLFRVTEQAALAAWPQTGCGDKNKIDGLAVTAMRQALNDVAFRGRVVIGEGEIDHAPMLWIGEEVGKGDGPEVDIAVDPIEGTRMVAMGQSNALAVMAFAPRDSLLHAPDMYMKKLVVNRLAAGAIDLSLPLTDNLRNVAKALGKPLDKLRMVTLDKPRLSAAIEEATQLGVKVFALPDGDVAASVLTCWQDNPYDVMYTIGGAPEGVISACAVKALGGDMQAELIDFCQAKGDYTENRQIAEQERKRCKAMGVDVNRVYSLDELVRGNDILFSATGVTGGELVNGIQQTANGVRTQTLLIGGADQTCNIIDSLH | soluble
3 | MMSLVIAFISCSKSDEDKVIKEENPKITSDTFSAVIKDGFTGENGEDLILYKNLKNIVVGDYIPYDITIKDEDSANTKYILTPTRIGEKNHQYFQIDYDVYLDNDKGEKVRVNAITFDKIGKHRFYIKPLVPGTFKLSFVLQREQNGQKVQDIKFPTLNFNVVKITVYKTQIFIGLYEVRFYIEDGENETDIYLSPDPSVKQTFVSKYNDMTYTGDFNVKEFCKVGYYSSTIKTITSITIIQKREGEEEYRIEYYNIPIP | not soluble
4 | MMTDLSTPDLPRMSAAIAEPTSHDPDSGGHFGGPSGWGGRYVPEALMAVIEEVTAAYQKERVSQDFLDDLDRLQANYAGRPSPLYEATRLSQHAGSARIFLKREDLNHTGSHKINNVLGQALLARRMGKTRVIAETGAGQHGVATATACALLGLDCVIYMGGIDTARQALNVARMRLLGAEVVAVQTGSKTLKDAINEAFRDWVANADNTYYCFGTAAGPHPFPTMVRDFQRIIGMEARVQIQGQAGRLPDAVVACVGGGSNAIGIFHAFLDDPGVRLVGFEAAGDGVETGRHAATFTAGSPGAFHGSFSYLLQDEDGQTIESHSISAGLDYPGVGPEHAWLKEAGRVDYRPITDSEAMDAFGLLCRMEGIIPAIESAHAVAGALKLGVELGRGAVIVVNLSGRGDKDVETAAKWFGLLGND | soluble
5 | MMYRIRNWLVATLLLLCAQVGAATLSDIQVSNGNQQARITLSFIGDPDYAFSHQSKRTVALDIKQTGVIQGLPLLFSGNNLVKAIRSGTPKDAQTLRLVVDLTENGKTEAVKRQNGSNYTVVFTINADAPPPPPPPPVVVKRVETPTVVAPRVSEPARNPFKTESNRTTGVISSNTVTRPAARATANNGDKIIIAIDAGHGGQDPGAIGPGGTREKNVTIAIARKLRTLLNDDPMFKGVLTRDGDYFISVMGRSDVARKQNANFLVSIHADAAPNRSATGASVWVLSNRRANSEMASWLEQHEKQSELLGGAGDVLANSQSDPYLSQAVLDLQFGHSQRVGYDVATSMISQLQRIGEIHKRRPEHASLGVLRSPDIPSVLVETGFISNNSEERLLASDDYQQQLAEAIYKGLRNYFLAHPMQSAPQGATAQTASTVTTPDRTLPN | not soluble
6 | MNAFNLIIIGDEILHGSSQDKHFAFFKSLLESKGLKLNQVQYLPDEPDLLVRQLRRSFSDGMPTFVTGGIGATPDDHTRQAAAAALDLPVVRHSEAAKFIEGITQKRGEPLDSPEHAQRLKMADFPEGAELVPNPFNNIAGFSIREHYFFPGFPVMAHPMAEWVLETYYADRFNQTERGSRSVYVFEQPESRITPLMEHIEQTYPGVRSYSLPSVGWTHSDGTQVKPHIEFGIKAEGEAVNLLDAAWAEVLHSLDGLGAELKNRVN | not soluble
7 | MNAGILGVGKYVPEKIVTNFDLEKIMDTSDEWIRTRTGIEERRIARDDEYTHDLAYEAAKVAIKNAGLTPDDIDLFIVATVTQEATFPSVANIIQDRLGAKNAAGMDVEAACAGFTFGVVTAAQFIKTGAYKNIVVVGADKLSKITNWDDRTTAVLFGDGAGAVVMGPVSDDHGLLSFDLGSDGSGGKYLNLDENKKIYMNGREVFRFAVRQMGEASLRVLERAGLEKEDLDLLIPHQANIRIMEASRERLNLPEEKLMKTVHKYGNTSSSSIALALVDAVEEGRIKDNDNVLLVGFGGGLTWGALIIRWGK | not soluble
8 | MNAPPAWAADILKKASSQALDLYNKGIGGNVYQGERIAGLGTMTKNALTGLEQAVGQYNNPALTQWFNAPTQSAHNLLGMAKGDWIGNNSKFNAALQSALSKTSDAINQSMAGAGRYGSGAHTGVLADELGALATNAAAQQYNQDIHNMMNANQMIDRSLYDQVNAANNYYQGQSNAQSNALKGGLIQDVNRQNALDAERQKWTEQDNQAWNQLERLLRVGTQAAGNYGTTSGKSTTMPSVTKDPLRDAQQVLGLMGGILGLCDVRAKENIVPVGEKNGYPLYVFNYKGDPQRYCGVLAQEVLRLKPEAVFVNAKTKLLHVDYNKIGLKMKKISEPKKRIATFFSALFARFPFLQKGYLLLEHHHHHH | soluble
9 | MNASTSSPSQQLQQAINSTIDKECAVCYSEMILPTTIPSCGHKFCFICLKGVSVSNNGDCPICRGPIDSQIFKKPLQAVDLKMDIPGTPSAAAPDPVVKQEVDDEDVKPDVKKLQEELKKQQAAAAAQKMFWLYRGRHQGWWRFDPRIEKEIEEAFTHQMPMTEVTICGNPYIVDFSQMCQYPKNQSNYSRNVKYGSRLKVLKILAKIDRKSAF | not soluble
10 | MNCRPGCGACCIAISISSPIPGMPRGKPAGVPCVQLRDDMECAIFGRPERPACCSGLRPSDEMCGGDRSHAMTWLARLEQATLPAAENTPHRPPLEHHHHHH | not soluble
11 | MNDEINEPPPNICEQCLGDEANIRMTKIPQGSECKICTLPFTLYHFKTSKRSNNIIKTLICVRCATQRNICQCCMLDSRWHIPIQLRDHLISLVNEENVMTEEAKNDMMKRFLSLKNVKLGGAQITSDPSEADNIVDKLKNILLRATSDGPSTPLIKNTTALYKNEKGANEVKNLEKYASVDISHILKKLPLNESFLKNPSTKSFFLYNIDASIPEWKITDTVSQLLGIKKWKDGNSLSLIVNHKAKCGGLRFQSSELGERFVSKISETLVTPKGLKRGVLLIDRFRIFIIPWSSGFSAASFGTNTAENIKLSLSLNKLIQLELGLSFPTKSTDNAKNDKKKTSKKVHKDRSKKSKPRANKLTI | soluble
12 | MNDELFNLIERLANLLRQETRLEGQSLGLQPIQQEALYYLSTCNRYSDTTLAVTEFLGLTKGTVSQSLKILESKSLIAKVKDKKDKRITHLKVTETGREFLMKTCPPQKFTDAIAGLSVDEEFETKTLLKKVLSNYQLATGRTAFGVCKHCKFNRKTSDGILCDLTKEALSSDDIMLICREYVV | not soluble
13 | MNDHKALKIFLMAAEKRNFAQVARELSMTAAGVTRAIAALECDLGVQLFVRTTRQVSLTTDGAVFAAQIQPAVEALENARRDVRNAHKADEGRLRISAPTWLGKTVLPPILSGFRELYPKMCFEISLSDGLVNIVDDDYDLAIRISSAPSDKFTIWRKIRAVPRILVAAPGSRFTQMKHPSDLTPDDCLAYSGESRRENWILSDGGSSITITAGRAFSANNGEVLADMAADGAGVAMLPGFHIAEHIRSGRLVHVLPGWAPPELWLTLYYPPYQTLPPRIATFSKFFEEQLTAHMVALD | not soluble
14 | MNDHLKRGNLLWEGSRMFLPEHKQSLLERKRLKQKLQKPILDPDKLEEMNQTLCAAMEFAQDITVSCFQDGEIVCCTGKICRYEEFEKAVWIKGDEDQLYKLKLDQVLDI | not soluble
15 | MNDPREILAVDPYNNITSDEEDEQAIARELEFMERKRQALVERLKRKQEFKKPQDPNFEAIEVPQSPTKNRVKVGSHNATQQGTKFEGSNINEVRLSQLQQQPKPPASTTTYFMEKFQNAKKNEDKQIAKFESMMNARVHTFSTDEKKYVPIITNELESFSNLWVKKRYIPEDDLKRALHEIKILRLGKLFAKIRPPKFQEPEYANWATVGLISHKSDIKFTSSEKPVKFFMFTITDFQHTLDVYIFGKKGVERYYNLRLGDVIAILNPEVLPWRPSGRGNFIKSFNLRISHDFKCILEIGSSRDLGWCPIVNKKTHKKCGSPINISLHKCCDYHREVQFRGTSAKRIELNGGYALGAPTKVDSQPSLYKAKGENGFNIIKGTRKRLSEEEERLKKSSHNFTNSNSAKAFFDEKFQNPDMLANLDNKRRKIIETKKSTALSRELGKIMRRRESSGLEDKSVGERQKMKRTTESALQTGLIQRLGFDPTHGKISQVLKSSVSGSEPKNNLLGKKKTVINDLLHYKKEKVILAPSKNEWFKKRSHREEVWQKHFGSKETKETSDGSASDLEII | soluble
16 | MNDQRKKARNTPFNMLKRERNRVSTVQQLTKRFSLGMLQGRGPLKLFMALVAFLRFLTIPPTAGILKRWGTIKKSKAINVLRGFRKEIGRMLNILNRRRR | soluble
17 | MNDVPHRPQVKTRKALTPLLEIRNLTKSFDGQHAVDDVSLTIYKGEIFALLGASGCGKSTLLRMLAGFEPPSSGQIMLDGVDLAHVPPYQRPINMMFQSYALFPHMTVEQNIAFGLKQDKLPKAEITSRVNEMLGLVHMQEFAKRKPHQLSGGQRQRVALARSLAKRPKLLLLDEPMGALDKKLRDRMQLEVVDILERVGVTCVMVTHDQEEAMTMAGRIAIMNRGKFVQIGEPEEIYEHPTTRYSAEFIGSVNVFEGLLKAREEDGLVIDAPGLVHPLKVDADASVVDNVPVYVALRPEKIMLCESPPADGYNFAVGEVAHIAYLGDLSIYHVRLKSGQMISAQLQNAHRYRKGLPTWGDEVRLCWEADSCVVLTV | not soluble
18 | MNEEKQQELLISVIITNYNYDQFIDQAIESVLSQTYYNFELIIVDDGSTDNSRDVISSYTDSRIKALVKNNGGQASAFNAGFEQANGEIICFLDSDDWWKPEKLETIIRWHYFINKDYAIFQHVLDVWYEGKTRPYKHILPSGDCFAEMKKVKKLDFFVPTSGLSFPKKILDRIFPIPIKFIIAADSYIMRTACVFNMVYSIPKSLGFYRQHDNTVFLNPDFDLQPFLKEILIPELNQFYQKYRINYQIEISDYNFNERKKNKKQKIFEYLKKVFFLEHHHHHH | not soluble
19 | MNEFEKLLEESIASPEEFKRGQVVKGRVVKVAGDTVFVDIGYKTEAVISKEEVPEVQEGQEIEAVLVRFSPRIPNPVLSVKPLQEKKELEKLKEAYLNKSDVVGKIEKKVKGGFIVDFEGVKAFLPMSQAGKKLKEGQVLTFKVLDFKLDSKRPQIIVSHKAYLDEQREKRKQELLNTLKPGDVVEGKVVKIDPNKGVTLVIEGVLRAFLPKEELSWGRDKNPYNYTDVGETLKVKVKRVDKQKGFIIVSLRELKGNPWEKFLKEHKEGDVIEGRVVAVTPKGVVVEVMEGVEGFVPEEELAWEGKPEFKKGDLVKAKIMKIDPKRRRLILSIKRAQPRPWEIFLQKHPVGSKVKGKVIKIEGSRAIVELEDGVKGVIHRSDLSWTRPKRVEEVLKEGEEREFAVLGLEGKYVKLGLKQLTENPWEKVKEKYKVGDVVKLPVKELAPFGAFLEFPEGVEGLLPFSEVPRHIRIRKGQEYEVKIIDINPKEGKITFSINALYGEKPEEKEEKVEEVTTATTGGFKLGEILKKRWKL | not soluble
20 | MNEFMEPLDRISAETLGHYERNAEAFFEGTRDHDVSQNIAALLSHIRTEPPFTVLDFGCGPGRDLKAFTELGHRAVGLDGAFRFVEMARDYSGCEVWHQDFLKLDLPEEHFDGIFANATLFHVPSRELPRVLGELRAALKPEGVLFASNPRGRNEEGWNRGRYGVYHDLDTWRRFLTSAGFLELEHYYRPAGLPRDQQPWLASVWRRTLEHHHHHH | soluble
